Experimental findings from the DeepSol protein solubility set are described below.

This data set in a line: soluble on expression in E. coli; label from the status in PepcDB or PDB records.
For the sequence “MNKYEEVLQELIKASGIEGAAIVSLDGLPIASVLPANAEEDKVAAMSAAILSLGERVVEELGKGTMEQITIKGDKGYVVITEIGQDAVLTTLAGQDSKLGLIYMEIKKAQQKLKELI”, the “soluble on expression in E. coli” value is “not soluble”.
Consider “MGCCQSKKARNNQRNNQRSDQMNRQHTQPSPNASTEQMAYPRQQPQGIPQGPPPAYAPPAAPKAPEKVVEPKNRRVTIAEPPERVAEPSPTPEDPELFTCIDQTEKEVEKEVEKRKSAPRAPVPAPTPAPQAAPQATPAAPAQAYPQQQQAAPVVYGSQPMVMGAAPVAPVVMAPPPVIMSPYPYYGGGVMFDPYYNGFYGGYGYGGFDFGYGGYGGYGCGFY”, for which the “soluble on expression in E. coli” value was “not soluble”.
With “MLSIKDLHVSVEDKAILRGLSLDVRPGEVHAIMGPNGSGKSTLSATLAGREDYEVTGGTVEFKGKDLLALSPEDRAGEGIFMAFQYPVEIPGVSNQFFLQTALNAVRSYRGQETLDRFDFQDLMEEKIALLKMPEDLLTRSVNVGFSGGEKKRNDILQMAVLEPELCILDESDSGLDIDALKVVADGVNSLRDGKRSFIIVTHYQRILDYIKPDYVHVLYQGRIVKSGDFTLVKQLEEQGYGWLTEQQ”, the “soluble on expression in E. coli” value is “not soluble”.
As to “MGSDKIHHHHHHMSSLLQQFHDEISLRGYSARTRNAYLYAITQLQHYANQPLDNITDEQLTAYFRYLNLEWHHSRATLKLQLNGIHFFYEHVLKRDFTIQLSLPKRPHKLPQLLSCQDIAALLYHCQNLKQRAMLALCYGCGLRVSELTHIKVADIDGQRQLLKVCQGKGACDRWVILSPTLLILLRQYWQAYHPVEWLFASTYHDVVYPLHESTFRKALAKAARLASITKPCSPHSLRHAYATHQLQAGMPLHQLQAQLGHHSIKSTERYLHWSPELGHQGCDLLASLGGMPWQPPTI”, the “soluble on expression in E. coli” value is reported as “not soluble”.
Turning to “GPGSMIMKASGAAVLHAVREKMQEATVAALIVTSSDAHNSEYVATHLQSRAFISHFQGSAGTALITMEKALLWTDGRYWLAAEEEKYPEFDLMKQGQPEVPSLEEWIAANLGSKAVVGMSPYVATVAEWERLSKKINLRPVANIVQDMMPPEKSVRKMYVRPAEFCGATCQERRAAILAELEKKDCDMIILSALDEIAWFTNLRGGDVDYNPVFYAYAVIDKHYENVRLYVNLDKVTDAVRQACEDHIDFYPYEQFEADLKQLPRGRKALVDERQTSEAVFRILKDVGTVTVRVVCGPAQKLKAIKNEVELKGFRDCHVRDGAALTRYLAWLHDQVANKGVTDLNEYDAATKLEEFRAQGEHFVQLSFGSISSIGPNGAMCHYSPAETGSAAIRRDQLYLIDSGAHYWDGTTDVTRTICFTAPSDEQREAYTLVLKGHIALNSIIFPKGTSGVRLDTLARMALWGVGLDYAHGTGHGVGSFLNVHEGPHGISTRPVATGANMELHSIVSNEPGYYKDGHYGIRIENLEEVVECRTKYSATGFYTMSHLTMAPLCRDLIDVSLLTETERAWVDRYHAKVVASIMPHLQQAGDQNAVEYLKYHTRPLFAVNEAYTLLSPDGKGAK”, the “soluble on expression in E. coli” value is “not soluble”.
For “MGSDKIHHHHHHMNCKELQLSPELTQALGEGDVFSRVMALGGEVFRDVPGRKTVRVQLAGQPYFIKQHFGVGWGEIFKNLLAFKVPIVSANTEKQAIEKLGEIGIATTPLAGFGSRGCSPASRQSFLITHDLGDILSLETLADQWMQSPPEPRFKRRLLMEVATLAARLHDSGLNHRDFYICHICLDLPRLRHGDIHLYLIDLHRVGIRETIRPQDRMKDIAALYFSAMNAGLVTRDYLRFLRRYRGKPIRQVMREERDFWQQVQARAIKLYIKLHKVEPGLHQIGGMIG”, the “soluble on expression in E. coli” value was “not soluble”.
The same measure for “MATKLTPKQKAQLDELSMSEKIAILLIQVGEDTTGEILRHLDIDSITEISKQIVQLNGTDKQIGAAVLEEFFAIFQSNQYINTGGLEYARELLTRTLGSEEAKKVMDKLTKSLQTQKNFAYLGKIKPQQLADFIINEHPQTIALILAHMEAPNAAETLSYFPDEMKAEISIRMANLGEISPQVVKRVSTVLENKLESLTSYKIEVGGLRAVAEIFNRLGQKSAKTTLARIESVDNKLAGAIKEMMFTFEDIVKLDNFAIREILKVADKKDLSLALKTSTKDLTDKFLNNMSSRAAEQFVEEMQYLGAVKIKDVDVAQRKIIEIVQSLQEKGVIQTGEEEDVIE”: “not soluble”; for “TLIFDREEKEAGALSGQKGTYVELTDISKNLQNAVIATEDRSFYKNDGINYGRFFLAIVTAGRSGGGSTITQQLAKNAYLSQDQTVERKAKEFFLALELSKKYSKEQILTMYLNNAYFGNGVWGVEDASKKYFGVSASEVSLDQAATLAGMLKGPELYNPLNSV”: “not soluble”; for “MAQAFVDATWPQAAKAAQSLGVPAHFLVAQAALETGWGKSQIRNKDGTPSYNLFNIKAGSNWTGKVVEARTVEYENGQRKVRVERFRAYDSYEQAFQDYADLVGNSPRYAKVAGKTDGHAFARALQEGGYATDPSYADKLARVINGNALRQRLMASAASARGLEHHHHHH”: “soluble”.
“MFSPEQIAGKDVRLLRIKKEGSLDLALEGGVDSPVGKVVVSAVYEGGAAERHGGVVKGDEIMAINGKIVTDYTLAEAEAALQKAWNQGGDWIDLVVAVCPPKEYDDELTFF”: the “soluble on expression in E. coli” value is given as “soluble”.
As for “MGSDKIHHHHHHMTITAMLNPVWIQTFATVAAARSFTEAGRQLGLSQSSVSDHIRRLEQSVGRRLFVRDTHSLSMTPDGEALLVHARLILEALARAESQFTAPRLRGRVRLGTSEDLAQGPLSGVLSAFRNTHPDVEMEITIAMTSKLYELMDAGSLDLMLGKRRQGDRRGVPLFRGSLEWLARPGTVVDLSQPLPLILVHEPSVTRSVVLDTLAKAGCQWQVVCSSSSHSGCLAAARGGLGLTVRSRYLYGEGVAPPLNWEKLPALPEVEFISLSARRLSQPAETLLRLLQKSDLRAASSWTSA”, the “soluble on expression in E. coli” value is recorded as “not soluble”.
As to “TSDQRKAEEHIEKEAKYLASLLDAGNLNNQANEKIIKDAGGALDVSASVIDTDGKVLYGSNGRSADSQKVQALVSGHEGILSTTDNKLYYGLSLRSEGEKTGYVLLSASEKSDGLKG”, the “soluble on expression in E. coli” value is on record as “not soluble”.
The same measure for “DGISSLLKPLSKIGLDTKTFALLISMTLRFVPILSDEFSTIVDAQRSRGLSLKTGSIVKRTKTLIPMIIPLISVAFKKALTLADTMEIRGFIDAKSRTSFHQLKFQKID”: “not soluble”.
“YVWDTKMNVGLRVGAAAEFMIGSRGFYLAPGLNYTMKGSKTEWDIPEMVPGTYITMVSTRLHYLQLPINAGMRFDLMNDMAVSIEAGPFLAYGIYGTYRQKLEGWKPNNYSTEFFGPTLGGPTNIRWDIGANIIAAFHYKRYYIQIGYEHGFVDIVSGGGSDIPRLNDNRQSSSTTALREKGNNEYAYNRDFFVGIGYRF”: the “soluble on expression in E. coli” value is listed as “not soluble”.
Take “GSHMGPVEILPFLYLGSAYHASKCEFLANLHITALLNVSRRTSEACMTHLHYKWIPVEDSHTADISSHFQEAIDFIDCVREKGGKVLVHSEAGISRSPTICMAYLMKTKQFRLKEAFDYIKQRRSMVSPNFGFMGQLLQYESEILPSTPNPQPPSCQGEAAGSSLIGHLQTLSPDMQGAYCTFPASVLAPVPTHSTVSELSRSPVATATSC”: the “soluble on expression in E. coli” value was “soluble”.
Then “MAVGKNKGLSKGGKKGGKKKVVDPFSRKDWYDVKAPNMFQTRQIGKTLVNRTQGQRIASDYLKGRVFEVSLADLQKDIDPERSFRKFRLIAEDVQDRNVLCNFHGMDLTTDKYRSMVKKWQTLIEAIVEAKTVDGYLLRVFCIGFTAKDQQSQRKTCYAQQSQVRKIRARMTDIITNEVSGADLKQLVNKLALDSIAKDIEKSCQRIYPLHDVYIRKVKVLKKPRFDVSKLLELHGDGGGKSVEAVVSSEGAVIDRPEGYEPPVQEAVLEHHHHHH”, with “soluble”; and “MSLKILFVAAEGAPFSKTGGLGDVIGALPKSLVKAGHEVAVILPYYDMVEAKFGNQIEDVLHFEVSVGWRRQYCGIKKTVLNGVTFYFIDNQYYFFRGHVYGDFDDGERFAFFQLAAIEAMERIDFIPDLLHVHDYHTAMIPFLLKEKYRWIQAYEDIETVLTIHNLEFQGQFSEGMLGDLFGVGFERYADGTLRWNNCLNWMKAGILYANRVSTVSPSYAHEIMTSQFGCNLDHILKMESGKVSGIVNGIDADLYNPQTDALLDYHFNQEDLSGKAKNKAKLQERVGLPVRADVPLVGIVSRLTRQKGFDVVVESLHHILQEDVQIVLLGTGDPAFEGAFSWFAQIYPDKLSTNITFDVKLAQEIYAACDLFLMPSRFEPCGLSQMMAMRYGTLPLVHEVGGLRDTVRAFNPIEGSGTGFSFDNLSPYWLNWTFQTALDLYRNHPDIWRNLQKQAMESDFSWDTACKSYLDLYHSLVNEGHHHHHH”, with “soluble”.
Turning to “MSQSASQDLSDFLGDDRFATVMADPPWRFTNRTGKVAPEHKRLARYPTMTLEDICALPVADYLQDRAHCYLWVPNALLPEGLQVLSAWGFEYKSNIVWHKVRKDGGSDGRGVGFYFRNVTELLLFGTKGKNARTLAPGRRQVNMMQTRKREHSRKPDEQYELIESCSWGPYLEMFGRGVRDGWTVWGNQADADYKPSWKTYSYNSGVAAELEHHHHHH”, the “soluble on expression in E. coli” value is given as “soluble”.
The same measure for “MSSKSTKRAKIEDPKDNVFMVEKVLDKRTGKAGRDEFLIQWQGFPESDSSWEPRENLQCVEMLDEFEREFSKREKPIRKRHSQKPEPSEDQADPEEDKDEKKETNQNDKFSLEGKQLKCIVGLTKGPGELHFLCKFSDDTARLLPAKEVNSRYPSQVIRYYESKLTIQDPKADEL”: “not soluble”; for “MSVLDELYREILLDHYQSPRNFGVLPQATKQAGGMNPSCGDQVEVMVLLEGDTIADIRFQGQGCAISTASASLMTEAVKGKKVAEALELSRKFQAMVVEGAPPDPTLGDLLALQGVAKLPARVKCATLAWHALEEALR”: “soluble”; for “MGSDKIHHHHHHMIITTALANEIVARAMAIIHHNVNVIDHHGQIIASGERHRIGEQHEVAREVIRTGKRICINNAAEAARFHNVHPGINHPIIYDDRVVMVVGISGDPAAISRYAELAVLTAELLVRQAIEMRETNWRQRLRDTLFCQYLEQGATPAGQEALHRLLELGFDFDTPRVPIVVTVQVEQHQLSDILSTLLREFSQLSGVSDVILLGSHEILILNALSEAQETLLRGIEFVLSNQISHYHIGIGVQADSAPDIREAIRFARSVIEVGSKVQPQRQIYYFREMAMLCLFRVLEDSYMVNFFINNVRQLLEHDSGEVLLDTLSSFIANNAEPGKTSLLLGIHRNTLTYRLQQIKKHIQLDPMVFTDLTQLAVSVHCYRRLNPRQSEWIDSLS”: “not soluble”.
In the case of “MNTGHDGALAYDEPIYLSDGNIINIGEFVDKFFKKYKNSIKKEDNGFGWIDIGNENIYIKSFNKLSLIIEDKRILRVWRKKYSGKLIKITTKNRREITLTHDHPVYISKTGEVLEINAEMVKVGDYIYIPKNNTINLDEVIKVETVDYNGHIYDLTVEDNHTYIAGKNEGFAVSASSGTLHHHHHH”, the “soluble on expression in E. coli” value is recorded as “soluble”.
Then “MAHHHHHHMVWFSAPDNSEFLGDPLPRKARQPKVHLATEVSVEASVPWEDVSSWECGSQTSRNSSRSSTSDNAANGHVANINKFHDRMELIRRLNKRRRNNSTCRESGRTEQWTCQPLYVGVSTFPEMKEMSPKSVGGENVPFWNGAVVHDSPLMTDRSGSEVDKKPLKTRKCAWNLTYVRKNDWPEAHQMHEGDAII”, with “not soluble”; and “MEFKVGDTVVYPHHGAAVIEAIEHREMGGETLEYLVLQINQSDLVVRVPSKNAELVGVRDVVDDDGLQKVFGFLRETDVEEAGNWSRRFKANQERLASGDVNKVAEVVRDLWRRDQGKGLSAGEKRMLAKARQVLVGELALAENKDEKQTEEILAQVDATIERHRAENKGIEETKVEPLGDIDLDDLNFDDED”, with “not soluble”.
